Test results: patent publication US20190112367A1

How the values were obtained:
[1] = target: human IL-32gamma (R&D) (human) (UniProt P24001); experiment: ELISA, antigen coated at 1 µg/ml, serial dilutions of MAB
[2] = target: IL-32 (isotype not stated, analyte of the SPR experiment) (UniProt P24001); experiment: SPR, ProteOn XPR36, IL-32 injected over the antibody
[3] = target: human IL-32gamma (R&D) (human) (UniProt P24001); experiment: cell-based or functional assay

B1: anti-IL-32 antibody 26A6 (IgG1, lambda) (antibody, V domains shown)
VH: QVQLVESGGGVVQPGRSLRLSCVASGLTFRTYGMHWVRQAPGNGLEWVAIIWHDGNKKYFADSVKGRFTISRDNSKNSLYLQMNSLRVEDTAVYYCAREMNGIDVWGQGTTVTVSS
VL: SYELTQPPSVSVSPGQTARITCSGDALPETYVYWYQQKSGQAPVKLIYEDSERPSGIPERFSGSSSGTLATLTISGAHVEDEADYYCYSTDSSGIGVFGGGTKVTVLS
- EC50 [1]: 1.33 µg/mL

B2: anti-IL-32 antibody 2C2 (IgG3, lambda) (antibody, V domains shown)
VH: QLRVQESGPGLLKPAETLSLTCSVSSGSVSNSRYYWAWIRQSPGKGLEWIGSMYYRGRSYYNPSLKSRLTISIDTSKNQFSLKLTSLTAADTAVYYCAAAVYHDLDYWGQGTLVTVSS
VL: QSVLTQPPSVSAAPGQKVTISCSGSGSSIGNNYVSWYQQLPGAAPKLLIYDNTKRPSGIPDRFSGSKSGTSATLAITGLQPGDAADYYCGTWDSSFSVFWVFGGGTKLTVLS
- EC50 [1]: 0.526 µg/mL
- Kd [2]: 4 nM
- IC 50 (neutralization of IL-32γ activity) [3]: 0.3 µg/mL
